Patent publication US5888811A, “Corticotropin-releasing hormone receptor” (DuPont Pharmaceuticals Company, priority 1997, dated 1999)
Where no end group is shown, it is not given here.

Assays:
CRHR2 γ = molecular target: T1, CRHR2 γ (Homo sapiens, UniProt Q13324, DEL106-106); assay: Whole cell adenylate cyclase assay (cAMP accumulation) in HEK293EBNA cells expressing CRHR2γ; assay type: cell-based; conditions: rank order only; summary statement
T1 sequence (Q13324 with tags, fused parts or gaps DEL106-106): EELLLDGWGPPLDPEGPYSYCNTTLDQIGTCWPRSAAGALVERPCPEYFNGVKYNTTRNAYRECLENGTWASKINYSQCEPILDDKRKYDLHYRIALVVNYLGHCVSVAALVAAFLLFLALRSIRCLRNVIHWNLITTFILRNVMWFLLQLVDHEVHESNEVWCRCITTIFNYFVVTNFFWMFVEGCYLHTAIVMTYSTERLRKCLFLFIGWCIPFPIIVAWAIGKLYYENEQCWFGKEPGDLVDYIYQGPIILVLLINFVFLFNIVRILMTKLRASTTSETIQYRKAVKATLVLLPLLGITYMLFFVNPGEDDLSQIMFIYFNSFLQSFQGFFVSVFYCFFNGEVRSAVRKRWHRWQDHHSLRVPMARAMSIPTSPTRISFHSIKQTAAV
Experimental: HEK293EBNA cells expressing the CRHR2 γ were incubated in DMEM with low serum (0.1% FBS) at 37° C., 5% CO2 for at least 2 hrs before the addition of isobytylmethoxyxanthine (IBMX) to the media at a final concentration of 0.1 mM. The cells were incubated with the IBMX for 30 minutes; test peptides or compounds were then added to the media and incubated therein for 25-30 min. The media was then aspirated from the cells and replaced with ice cold sodium acetate buffer containing 1 mM IBMX. The cells were then disrupted by a freeze-thaw, followed by sonication. Supernatants were assayed for cAMP levels with PerSeptive Diagnostics EIA Kit.

CRHR2 γ receptor = molecular target: T2, CRHR2 γ receptor (Homo sapiens, UniProt Q13324, DEL106-106); assay: Displacement of 125I-tyr-0-sauvagine from membranes of HEK293EBNA cells expressing CRHR2γ; assay type: binding; conditions: 60-70 pM 125I-tyr-0-sauvagine; 23° C., 4 hours; read-out: approximate IC50 for displacement of 125I-tyr-0-sauvagine
T2 construct: the full length CRHR2 γ cDNA (original cDNA library clone) was subcloned; expressed in transfected cells; membranes
T2 sequence (Q13324 with tags, fused parts or gaps isoform Q13324-3 DEL92-92): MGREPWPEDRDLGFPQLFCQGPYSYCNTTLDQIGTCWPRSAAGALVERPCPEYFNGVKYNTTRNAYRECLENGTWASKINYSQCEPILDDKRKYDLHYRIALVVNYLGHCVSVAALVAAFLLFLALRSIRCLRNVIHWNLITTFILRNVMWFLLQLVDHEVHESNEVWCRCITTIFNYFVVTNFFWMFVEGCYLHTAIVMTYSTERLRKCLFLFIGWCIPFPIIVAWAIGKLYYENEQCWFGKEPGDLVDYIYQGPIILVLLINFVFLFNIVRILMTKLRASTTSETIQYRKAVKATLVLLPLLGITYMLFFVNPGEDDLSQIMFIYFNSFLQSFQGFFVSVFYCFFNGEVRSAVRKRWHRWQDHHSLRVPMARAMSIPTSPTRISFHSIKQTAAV
Experimental: Buffer consisted of 50 mM HEPES, 10 mM MgCI2, 2 mM EGTA, and 1 μg/ml each of aprotinin, leupeptin, and pepstatin at a final pH of 7.0. Bacitracin at 0.15 mM and ovalbumin at 0.1% were added to the buffer on the day of use. Assays were performed at 23° C. for 4 hours in a final volume of 200 μl in 96-well microtiter plates. Reactions were initiated by the addition of 10-20 μg of membrane homogenates and terminated by rapid filtration through presoaked (0.3% polyethyleneimine) glass fiber filters using an Inotech 96-well harvester. The filters were washed quickly 3×with ice-cold solution (PBS+0.01% TritonX-100, pH7.2), dried briefly, then placed into polystyrene tubes and counted on an Isomedic 10/880 γ counter (counting efficiency ~80%). Data was analyzed by nonlinear regression analysis using the computer program MacLigand. Determinations were made from at least 3 separate experiments.

Substance | potency of stimulation of adenylate cyclase activity (rank order), measured by intracellular cAMP accumulation (CRHR2 γ) | IC50 (CRHR2 γ receptor)
r/h CRH: rat/human corticotropin-releasing hormone, agonist peptide | sauvagine>urotensin>rat/human CRH | –
urocortin: mammalian neuropeptide related to fish urotensin I and to corticotropin-releasing factor (DNPSLSIDLTFHLLRTLLELARTQSQRERAEQNRIIFDSV; ends and bridges not checked; UniProt P55089 83-122, looked up) | – | ~2 nM
